34 variants from the RNAGym collection of RNA variant scans (doi:10.1093/nar/gkz1192) can be followed below.

The labels stand for the following.
B1: CPEB3 Ribozyme (parent)
chain: UAACAGGGGGCCACAGCAGAAGCGUUCACGUCGCAGCCCCUGUCAGAUUCUGGUGAAUCUGCGAAUUCUGCUGUAUAUCUC

The variants in the data set derive from B1. The data set can be described thus: self-cleavage, relative activity (ratio to wild type); higher = more cleavage; in vitro, sequencing. An outline of the steps:
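Barcoded CPEB3 ribozyme mutants, produced by rounds of error-prone PCR, self-cleaved while being transcribed with T7 RNA polymerase for 5 hours at 37°C and during a subsequent 15 min DNase I step before EDTA was added. Sequencing of template-switched cDNA on Illumina gave cleaved and total reads, and DNA sequencing assigned barcodes to variants. Each variant's relative activity is its cleaved/total read fraction divided by the unmutated ribozyme's fraction, averaged across three batches. A variant needed a minimum of 5 reads.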
For UAACAGGGGGCCACAGCAGAAGCGUUCACGUCGCAGCCCCUGUCAGAUCCUGGUGUAUCUGCGAAUUCUGCUGUAUAUCUC [U49C A56U], the self-cleavage stood at 0.48.

On to UAACAGGGGGCCACAGCAGAAGCGUUCACGUCGCAGCCCCUGUCAGAUCCUGGUGCAUCUGCGAAUUCUGCUGUAUAUCUC [U49C A56C], for which the self-cleavage amounted to 0.42. The same measure for UAACAGGGGGCCACAGCAGAAGCGUUCACGUCGCAGCCCCUGUCAGAUCCUGGUGGAUCUGCGAAUUCUGCUGUAUAUCUC [U49C A56G]: 1.04. With UAACAGGGGGCCACAGCAGAAGCGUUCACGUCGCAGCCCCUGUCAGAUCCUGGUGAAUCUGCGAAUUCUGCUGUGUAUCUC [U49C A75G], the self-cleavage is 0.4. For the variant UAACAGGGGGCCACAGCAGAAGCGUUCACGUCGCAGCCCCUGUCAGAUCCUGGUGAAUCUGCGAAUUCUGCUGUCUAUCUC [U49C A75C], the self-cleavage was determined as 0.55. As to UAACAGGGGGCCACAGCAGAAGCGUUCACGUCGCAGCCCCUGUCAGAUCCUGGUGAAUCUGCGAAUUCUGCUGUUUAUCUC [U49C A75U], the self-cleavage worked out at 0.62.

Consider UAACAGGGGGCCACAGCAGAAGCGUUCACGUCGCAGCCCCUGUCAGAUACUGGUGAAUCCGCGAAUUCUGCUGUAUAUCUC [U49A U60C], for which the self-cleavage was found to be 0.32. As for UAACAGGGGGCCACAGCAGAAGCGUUCACGUCGCAGCCCCUGUCAGAUACUGGUGAAUCAGCGAAUUCUGCUGUAUAUCUC [U49A U60A], the self-cleavage was found to be 0.21.

With UAACAGGGGGCCACAGCAGAAGCGUUCACGUCGCAGCCCCUGUCAGAUCCUGGUGAAUCUGCGACUUCUGCUGUAUAUCUC [U49C A65C], the self-cleavage amounted to 0.14. In the case of UAACAGGGGGCCACAGCAGAAGCGUUCACGUCGCAGCCCCUGUCAGAUCCUGGUGAAUCUGCGAGUUCUGCUGUAUAUCUC [U49C A65G], the self-cleavage is 0.26.

UAACAGGGGGCCACAGCAGAAGCGUUCACGUCGCAGCCCCUGUCAGAUCCUGGUGAAUCUGCGAUUUCUGCUGUAUAUCUC [U49C A65U]: the self-cleavage came to 0.26.

In the case of UAACAGGGGGCCACAGCAGAAGCGUUCACGUCGCAGCCCCUGUCAGAUACUGAUGAAUCUGCGAAUUCUGCUGUAUAUCUC [U49A G53A], the self-cleavage was found to be 0.79.

In the case of UAACAGGGGGCCACAGCAGAAGCGUUCACGUCGCAGCCCCUGUCAGAUCCUGGUGAGUCUGCGAAUUCUGCUGUAUAUCUC [U49C A57G], the self-cleavage turned out to be 0.35. UAACAGGGGGCCACAGCAGAAGCGUUCACGUCGCAGCCCCUGUCAGAUCCUGGUGAUUCUGCGAAUUCUGCUGUAUAUCUC [U49C A57U]: the self-cleavage was determined as 0.33. In the case of UAACAGGGGGCCACAGCAGAAGCGUUCACGUCGCAGCCCCUGUCAGAUACUGGUGAAUCUGCGAAUUCUGCUGUAUAGCUC [U49A U78G], the self-cleavage stood at 0.6. As for UAACAGGGGGCCACAGCAGAAGCGUUCACGUCGCAGCCCCUGUCAGAUACUGGUGAAUCUGCGAAUUCUGCUGUAUACCUC [U49A U78C], the self-cleavage amounted to 0.57.

Consider UAACAGGGGGCCACAGCAGAAGCGUUCACGUCGCAGCCCCUGUCAGAUACUGGUGAAUCUGCGAAUUCUGCGGUAUAUCUC [U49A U72G], for which the self-cleavage amounted to 0.4.

For the variant UAACAGGGGGCCACAGCAGAAGCGUUCACGUCGCAGCCCCUGUCAGAUACUGGUGAAUCUGCGAAUUCUGCAGUAUAUCUC [U49A U72A], the self-cleavage was determined as 0.44.

Regarding UAACAGGGGGCCACAGCAGAAGCGUUCACGUCGCAGCCCCUGUCAGAUACUGGUGAAUCUGCGAAUUCUGCCGUAUAUCUC [U49A U72C], the self-cleavage amounted to 0.87. For UAACAGGGGGCCACAGCAGAAGCGUUCACGUCGCAGCCCCUGUCAGAUACUGGUGAAUCUGCGAAUUCUACUGUAUAUCUC [U49A G70A], the self-cleavage was 0.49. On to UAACAGGGGGCCACAGCAGAAGCGUUCACGUCGCAGCCCCUGUCAGAUACUGGUGAAUCUGCGAAUUCUUCUGUAUAUCUC [U49A G70U], for which the self-cleavage was determined as 0.24. With UAACAGGGGGCCACAGCAGAAGCGUUCACGUCGCAGCCCCUGUCAGAUACUGGUGAAUCUGCGAAUUCUGCUGUAUAUUUC [U49A C79U], the self-cleavage worked out at 1.07. UAACAGGGGGCCACAGCAGAAGCGUUCACGUCGCAGCCCCUGUCAGAUACUGGUGAAUCUGCGAAUUCUGGUGUAUAUCUC [U49A C71G]: the self-cleavage amounted to 0.24. Take UAACAGGGGGCCACAGCAGAAGCGUUCACGUCGCAGCCCCUGUCAGAUACUGGUGAAUCUGCGAAUUCUGUUGUAUAUCUC [U49A C71U]: the self-cleavage was found to be 0.26.

UAACAGGGGGCCACAGCAGAAGCGUUCACGUCGCAGCCCCUGUCAGAUACUGGUGAAUCUCCGAAUUCUGCUGUAUAUCUC [U49A G61C]: the self-cleavage is 0.19. For the variant UAACAGGGGGCCACAGCAGAAGCGUUCACGUCGCAGCCCCUGUCAGAUACUGGUGAAUCUGCGAAUUCCGCUGUAUAUCUC [U49A U69C], the self-cleavage stood at 0.44. Take UAACAGGGGGCCACAGCAGAAGCGUUCACGUCGCAGCCCCUGUCAGAUACUGGUGAAUCUGCGAAUUCGGCUGUAUAUCUC [U49A U69G]: the self-cleavage was found to be 0.61. Regarding UAACAGGGGGCCACAGCAGAAGCGUUCACGUCGCAGCCCCUGUCAGAUACUGGUGAAUCUGCGAAUUCAGCUGUAUAUCUC [U49A U69A], the self-cleavage was found to be 0.34. On to UAACAGGGGGCCACAGCAGAAGCGUUCACGUCGCAGCCCCUGUCAGAUACUGGAGAAUCUGCGAAUUCUGCUGUAUAUCUC [U49A U54A], for which the self-cleavage is 0.81.

On to UAACAGGGGGCCACAGCAGAAGCGUUCACGUCGCAGCCCCUGUCAGAUACUGGGGAAUCUGCGAAUUCUGCUGUAUAUCUC [U49A U54G], for which the self-cleavage turned out to be 0.27. In the case of UAACAGGGGGCCACAGCAGAAGCGUUCACGUCGCAGCCCCUGUCAGAUACUGGCGAAUCUGCGAAUUCUGCUGUAUAUCUC [U49A U54C], the self-cleavage came out at 0.54. The value for UAACAGGGGGCCACAGCAGAAGCGUUCACGUCGCAGCCCCUGUCAGAUCCUGGUGAAUCUGCGAAUUCUGCUGUAUUUCUC [U49C A77U] was 0.37; that for UAACAGGGGGCCACAGCAGAAGCGUUCACGUCGCAGCCCCUGUCAGAUCCUGGUGAAUCUGCGAAUUCUGCUGUAUGUCUC [U49C A77G] was 0.45.

As for UAACAGGGGGCCACAGCAGAAGCGUUCACGUCGCAGCCCCUGUCAGAUACUGGUGAAUCUGCGAAAUCUGCUGUAUAUCUC [U49A U66A], the self-cleavage stood at 0.24.
